{"source": "patent US20200277397A1", "about": "(Genmab, published 2020)", "binders": {"B1": {"name": "bsIgG1-huCD3-H101G-FEALx5T4-127-FEAR (bispecific antibody)", "heavy 1": "not shown", "VL": "not shown", "heavy 2": "EVQLLESRGGLVQPGGSLRLSCAASGFTFSSYAMSWVRQAPGKGLEWVSTISGSGGSTYYADSVKGRFTISRDNSKKTLYLQMNSLRAEDTAVYYCAKDWGSGSYPAEYFQHWGQGTLVTVSSASTKGPSVFPLAPSSKSTSGGTAALGCLVKDYFPEPVTVSWNSGALTSGVHTFPAVLQSSGLYSLSSVVTVPSSSLGTQTYICNVNHKPSNTKVDKRVEPKSCDKTHTCPPCPAPEFEGGPSVFLFPPKPKDTLMISRTPEVTCVVVAVSHEDPEVKFNWYVDGVEVHNAKTKPREEQYNSTYRVVSVLTVLHQDWLNGKEYKCKVSNKALPAPIEKTISKAKGQPREPQVYTLPPSREEMTKNQVSLTCLVKGFYPSDIAVEWESNGQPENNYKTTPPVLDSDGSFFLYSRLTVDKSRWQQGNVFSCSVMHEALHNHYTQKSLSLSPGK", "light": "not shown"}, "B2": {"name": "bsIgG1-huCD3-H101G-FEALx5T4-076-FEAR (bispecific antibody)", "heavy 1": "not shown", "VL": "not shown", "heavy 2": "QVQLVQSGAEVKKPGASVKVSCKASGYTFTSYGISWVRQAPGQGLEWMGWISAYNGNTNYAQKLQGRVTMTTDTSTRTAYMELRSLRSDDTAVYYCARDPGYFDWLYGDYWGQGTLVTVSSASTKGPSVFPLAPSSKSTSGGTAALGCLVKDYFPEPVTVSWNSGALTSGVHTFPAVLQSSGLYSLSSVVTVPSSSLGTQTYICNVNHKPSNTKVDKRVEPKSCDKTHTCPPCPAPEFEGGPSVFLFPPKPKDTLMISRTPEVTCVVVAVSHEDPEVKFNWYVDGVEVHNAKTKPREEQYNSTYRVVSVLTVLHQDWLNGKEYKCKVSNKALPAPIEKTISKAKGQPREPQVYTLPPSREEMTKNQVSLTCLVKGFYPSDIAVEWESNGQPENNYKTTPPVLDSDGSFFLYSRLTVDKSRWQQGNVFSCSVMHEALHNHYTQKSLSLSPGK", "light": "not shown"}, "B3": {"name": "bsIgG1-huCD3-H101G-FEALx5T4-106-FEAR (bispecific antibody)", "heavy 1": "not shown", "VL": "not shown", "heavy 2": "EVQLVQSGAEVKKPGESLKISCKGSGYRFTSYWIGWVRQMPGKGLEWMGIIYPGDSDARYSPSFQGQVTISADKSISTAYLQWSSLKASDTGMYYCARSVLFDYWGQGTLVTVSSASTKGPSVFPLAPSSKSTSGGTAALGCLVKDYFPEPVTVSWNSGALTSGVHTFPAVLQSSGLYSLSSVVTVPSSSLGTQTYICNVNHKPSNTKVDKRVEPKSCDKTHTCPPCPAPEFEGGPSVFLFPPKPKDTLMISRTPEVTCVVVAVSHEDPEVKFNWYVDGVEVHNAKTKPREEQYNSTYRVVSVLTVLHQDWLNGKEYKCKVSNKALPAPIEKTISKAKGQPREPQVYTLPPSREEMTKNQVSLTCLVKGFYPSDIAVEWESNGQPENNYKTTPPVLDSDGSFFLYSRLTVDKSRWQQGNVFSCSVMHEALHNHYTQKSLSLSPGK", "light": "AIQLTQSPSSLSASVGDRVTITCRASQGISSALAWYQQKPGKAPKLLIYDVSNLESGVPSRFSGSGSGTDFTLTISSLQPEDFATYYCQQFNSYPHTFGQGTKLEIKRTVAAPSVFIFPPSDEQLKSGTASVVCLLNNFYPREAKVQWKVDNALQSGNSQESVTEQDSKDSTYSLSSTLTLSKADYEKHKVYACEVTHQGLSSPVTKSFNRGEC"}, "B4": {"name": "bsIgG1-huCD3-H101G-FEALx5T4-085-FEAR (bispecific antibody)", "heavy 1": "not shown", "VL": "not shown", "heavy 2": "EVQLLESGGGLVQPGGSLRLSCAASGFTFSSYAMSWVRQAPGKGLEWVSAISGSGGSTYNADSVKGRFTIFRDNSKNTLYLHMNSLRAEDTAVYYCARDPGYNNVEYLDHWGQGTLVTVSSASTKGPSVFPLAPSSKSTSGGTAALGCLVKDYFPEPVTVSWNSGALTSGVHTFPAVLQSSGLYSLSSVVTVPSSSLGTQTYICNVNHKPSNTKVDKRVEPKSCDKTHTCPPCPAPEFEGGPSVFLFPPKPKDTLMISRTPEVTCVVVAVSHEDPEVKFNWYVDGVEVHNAKTKPREEQYNSTYRVVSVLTVLHQDWLNGKEYKCKVSNKALPAPIEKTISKAKGQPREPQVYTLPPSREEMTKNQVSLTCLVKGFYPSDIAVEWESNGQPENNYKTTPPVLDSDGSFFLYSRLTVDKSRWQQGNVFSCSVMHEALHNHYTQKSLSLSPGK", "light": "not shown"}}, "key": {"[1]": {"target": "T1, full length cynomolgus monkey 5T4 (cynomolgus monkey, UniProt Q4R8Y9 35-420)", "T1 construct": "Uniprot Q4R8Y9; also called cynomolgus monkey 5T4 on HEK-293 cells", "T1 sequence": "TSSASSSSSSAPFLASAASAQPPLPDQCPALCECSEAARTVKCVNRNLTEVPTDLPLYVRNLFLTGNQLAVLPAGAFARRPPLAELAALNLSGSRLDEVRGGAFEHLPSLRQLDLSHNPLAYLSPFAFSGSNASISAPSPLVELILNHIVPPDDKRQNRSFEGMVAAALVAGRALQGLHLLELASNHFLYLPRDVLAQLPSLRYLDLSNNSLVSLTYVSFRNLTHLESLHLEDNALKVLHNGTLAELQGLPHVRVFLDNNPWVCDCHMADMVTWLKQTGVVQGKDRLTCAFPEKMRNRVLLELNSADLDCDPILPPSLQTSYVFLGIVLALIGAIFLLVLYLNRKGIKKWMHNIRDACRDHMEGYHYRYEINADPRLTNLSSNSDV", "experiment": "flow cytometry, HEK-293 cells transfected with cynomolgus monkey 5T4 (right panel), PE anti-human IgG F(ab')2, MFI PE"}, "full length human 5T4 [2]": {"target": "T2, full length human 5T4 (human, UniProt Q13641 32-420)", "T2 construct": "Uniprot Q13641; Used here also for endogenous 5T4 on the human tumour cell lines", "T2 sequence": "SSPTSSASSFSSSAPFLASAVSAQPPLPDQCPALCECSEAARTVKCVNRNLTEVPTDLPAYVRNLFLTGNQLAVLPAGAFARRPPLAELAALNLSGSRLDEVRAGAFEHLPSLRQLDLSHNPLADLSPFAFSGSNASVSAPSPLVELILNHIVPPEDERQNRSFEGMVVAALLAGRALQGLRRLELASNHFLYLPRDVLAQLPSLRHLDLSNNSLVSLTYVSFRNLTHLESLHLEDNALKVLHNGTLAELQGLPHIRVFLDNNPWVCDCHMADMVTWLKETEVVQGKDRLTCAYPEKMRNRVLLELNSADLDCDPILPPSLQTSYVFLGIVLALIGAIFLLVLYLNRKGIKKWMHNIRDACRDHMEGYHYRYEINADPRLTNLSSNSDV", "experiment": "flow cytometry, HEK-293 cells transfected with human 5T4 (left panel), PE anti-human IgG F(ab')2, MFI PE"}, "[3]": {"target": "T1, full length cynomolgus monkey 5T4", "experiment": "flow cytometry, HEK-293 cells transfected with cynomolgus monkey 5T4 (right panel), PE anti-human IgG F(ab')2, MFI PE", "remark": "listed apart in the source"}, "full length human 5T4 [4]": {"target": "T2, full length human 5T4", "experiment": "flow cytometry, HeLa cells, PE anti-human IgG F(ab')2, MFI PE"}, "full length human 5T4 [5]": {"target": "T2, full length human 5T4", "experiment": "flow cytometry, MDA-MB-231 cells, PE anti-human IgG F(ab')2, MFI PE"}, "[6]": {"target": "T1, full length cynomolgus monkey 5T4", "experiment": "flow cytometry, HEK-293 cells transfected with cynomolgus monkey 5T4 (right panel), PE anti-human IgG F(ab')2, MFI PE", "remark": "listed apart in the source"}, "full length human 5T4 [7]": {"target": "T2, full length human 5T4", "experiment": "flow cytometry, HEK-293 cells transfected with human 5T4 (left panel), PE anti-human IgG F(ab')2, MFI PE", "remark": "listed apart in the source"}, "[8]": {"target": "T1, full length cynomolgus monkey 5T4", "experiment": "flow cytometry, HEK-293 cells transfected with cynomolgus monkey 5T4 (right panel), PE anti-human IgG F(ab')2, MFI PE", "remark": "listed apart in the source"}}, "note": "Like-named read-outs stand apart in the source and are kept apart here."}
{"binder": "B1", "values": [{"measurement": "EC50 (read off the curve)", "setting": "[1]", "result": "~0.1", "unit": "µg/mL"}]}
{"binder": "B2", "values": [{"measurement": "binding result", "setting": "full length human 5T4 [2]", "result": "binds"}, {"measurement": "EC50 (read off the curve)", "setting": "[3]", "result": "~0.4", "unit": "µg/mL"}]}
{"binder": "B3", "values": [{"measurement": "EC50 (read off the curve)", "setting": "full length human 5T4 [4]", "result": "~0.1", "unit": "µg/mL"}, {"measurement": "EC50 (read off the curve)", "setting": "full length human 5T4 [5]", "result": "~0.1", "unit": "µg/mL"}, {"measurement": "binding result", "setting": "[6]", "result": "binds"}]}
{"binder": "B4", "values": [{"measurement": "EC50 (read off the curve)", "setting": "full length human 5T4 [7]", "result": "~0.5", "unit": "µg/mL"}, {"measurement": "EC50 (read off the curve)", "setting": "[8]", "result": "~0.4", "unit": "µg/mL"}]}
